Assay results reported in article PMC9146559, “Recombinant Integrin β1 Signal Peptide Blocks Gliosis Induced by Aβ Oligomers” (International Journal of Molecular Sciences, 2022).

Molecular target: T1, amyloid β protein fragment 1–42 (synthetic Aβ peptide, oligomer preparation) (UniProt P05067 672-713)
T1 construct: amyloid beta 1-42, the cut product of the amyloid precursor protein; One preparation that holds monomeric and oligomeric forms, which are seen as separate bands on non-reducing SDS-PAGE; also called Aβ1–42; Aβ oligomers; source: synthetic peptide; oligomers prepared from hexafluoroisopropanol film, DMSO, Hams F-12, 4 °C for 24 h, supernatant after 14,000 x g
Assay: pull-down; glutathione beads coated with 500 ng GST0 or GST fusion protein, incubated with 100 pM Aβ oligomers in 50 mM Tris-HCl pH7.5, 5 mM MgCl2, 20 mM KCl, 500 µg/mL BSA for 1 h at RT; washed, eluted under non-reducing conditions, SDS-PAGE and Western blot with 6E10
Conditions: both partners purified

B1: GST-Rs recombinant fusion protein (integrin β1 signal peptide, amino acids 1–20) (domain or fragment, UniProt P05556 1-20, looked up)
chain: MNLQPIFWIGLISSVCCVFA
notes: signal peptide in the construct; integrin β1 (ITGβ1) amino acids 1-20, PCR from pCMV6-XL5-ITGB1 (Origene); The fragment was cloned through EcoRI sites, so linker residues from the vector are likely; The printed forward primer (ATG AAT TTA CAA CC) encodes M-N-L-Q-P, which fits the human cDNA; also called Rs peptide; recombinant integrin β1 signal peptide
B1: binds.
